Tests used:
[1] = system: cdc4Δ strain overexpressing SIC1; assay: sensitivity to SIC1 dosage: GAL1-SIC1 overexpression in strains bearing CDC4 alleles; format: cell-based, yeast; details: for gal Sic1T33V: GAL1-SIC1 T33V (partially stabilized Sic1); for gal Sic1T33V / gal Sic1T45A / gal Sic1 wt: galactose, 2 days at 30° C.; for gal Sic1T45A: GAL1-SIC1 T45A; for gal Sic1 wt: GAL1-SIC1 wild type
Protocol: (§1) Mutational analysis of the CPD binding surface. Mutants were tested in vitro by ability to bind phosphorylated Sic1 and then captured onto GST-Skp1/Cdc4 resin and detected with anti-sic1 antibody. Mutants were tested in vivo by ability to degrade GAL1-SIC1 or various phosphorylation mutants. Sites are as follows: 3=Thr 33, Thr 45, Ser 76; 4=Thr 5, Thr 33, Thr 45, Ser 76; 5=Thr 2, Thr 5, Thr 33, Thr 45, Ser 76; 6=Thr 2, Thr 5, Thr 33, Thr 45, Ser 69, Ser 76; 7=Thr 2, Thr 5, Thr 33, Thr 45, Ser 69, Ser 76, Ser 80. GAL1-SIC1 plasmids were transformed into a cdc4Δ strain containing a copy of CDC4 on a TRP1 ARS CEN plasmid. Strains were incubated for 2 days at 30° C.
(§2) All mutants on a TRP1 ARS CEN plasmid were transformed into a cdc4Δ strain (MT 1259) containing a wildtype copy of CDC4 on a URA3 ARS CEN plasmid. Cells were plated on either Trp^−Ura^− or 5-FOA medium for 2 days at 30° C. Viable cells on 5-FOA were grown in Trp medium and transformed with either wild type GAL1-SIC1, GAL1-SIC T45A, or GAL1-SIC T33V on a LEU2 ARS CEN pasmid. Cells were then plated on Leu- Trp-plates containing either glucose or galactose and incubated for 2 days at 30° C.
Since the cell viability assay nay be masking subtle functional roles for the conserved Cdc4 residues, function was assayed in vivo under more stringent conditions in which Sic1 wt or the stabilized mutants, Sic1 (T33V) or Sic1(T45A) are over-expressed under a galactose promoter. This should amplify defects in cdc4 function. Under these conditions, Trp 717, Tyr 548 and the double mutant K404D/R443D are lethal showing that these residues are in fact important for functions
(§3) Cdc4 functional assays. CDC4 mutant alleles were assessed for complementation of a cdc4A strain in a plasmid shuffle assay (Nash et al., 2001). Sensitivity to SIC1 dosage was determined by transformation with pMT837 (GAL1-SIC1) or pMT767 (GAL1-SIC1^T33V) and plating on glucose medium or galactose medium. For in vitro capture of phospho-Sic1 by Cdc4, 0.5 μg of bacterially-expressed ^HIS6Sic1 was phosphorylated with immobilized Cln2-Cdc28 kinase from baculovirus-infected Sf9 cells and then incubated with 1 μg of immobilized wild type or mutant Cdc4^263-744-GST-Skp1, at 4° C. for 1 hr, washed 4 times and visualized by anti-Sic1 immunoblot. For isoelectric focusing (IEF)-2D gel analyses, an evenly distributed pool of phospho-Sic1 isoforms was generated by combining different time points in a Sic1 phosphorylation reaction. 2.5 μg of the phospho-Sic1 pool was bound to 5 μg of immobilized wild type or mutant Cdc4^1-744-GST-Skp1. Captured isoforms were separated by denaturing IEF-2D gel electrophoresis using pH3-10NL Immobiline gel strips (Amersham) and visualized by anti-Sic1 immunoblot. Alternatively, the pool of phospho-Sic1 isoforms was incubated in solution with a ubiquitination reaction mix containing ATP, ubiquitin, yeast E1, Cdc34 and either wild type or mutant SCF^Cdc4 complex, composed of a 1:1 ratio of bacterial Cdc4-GST-Skp1 and insect cell-produced Cdc53-Rbx1, at 30° C. for 1 h as previously described (Nash et al., 2001).

cdc4Δ strain = assay: plasmid shuffle assay: complementation of a cdc4Δ strain by CDC4 alleles; format: cell-based, yeast; details: viability of cdc4Δ strain on 5-FOA, 2 days at 30° C.
Protocol: as §2, §3

phospho-Sic1 = assay: P-Sic1 pull down: in vitro capture of phospho-Sic1 on immobilized wild type or mutant Cdc4-GST-Skp1, anti-Sic1 immunoblot; format: binding, yeast; details: Sic1 phosphorylated with Cln2-Cdc28, captured onto GST-Skp1/Cdc4 resin, anti-Sic1 detection
Protocol: as §1
Bacterially expressed His6-Sic1 was phosphorylated with Cln2-Cdc28 kinase purified from baculovirus infected Sf9 cells as described before (Nature paper). 1 ug of WT or mutant Cdc4-GST-Skp1, immoblized on GSH-Sepharose resin, was incubated with 0.5 ug phospho-Sic1 at 4 C for 1 h and washed 4 times. Captured complexes were resolved on SDS-PAGE and Sic1 visualized by anti-Sic1 Western blotting and ECL. For IEF-2D analysis, several Sic1 phosphorylation reactions were carried out for different time periods to obtain a spectrum of Sic1 that were phosphorylated at different numbers of its nine CDK sites. This pool of phospho-Sic1 (2.5 ug) was incubated with 5 μg of WT or mutant Cdc4-GST-Skp1 as described above. Different phosphorylation states of Sic1 were separated by denaturing isoelectric focusing (IEF)-2D gel electrophoresis and visualized by anti-Sic1 Western blotting and ECL. IEF was performed using pH 3-10NL Immobiline gel strips and IPGphore IEF system (Amersham pharmacia).
as §3

B1: Y548F: mutant cdc4 polypeptide (protein)
chain: MGSFPLAEFPLRDIPVPYSYRVSGGIASSGSVTALVTAAGTHRNSSTAKTVETEDGEEDIDEYQRKRAAGSGESTPERSDFKRVKHDNHKTLHPVNLQNTGAASVDNDGLHNLTDISNDAEKLLMSVDDGSAAPSTLSVNMGVASHNVAAPTTVNAATITGSDVSNNVNSATINNPMEEGALPLSPTASSPGTTTPLAKTTKTINNNNNIADLIESKDSIISPEYLSDEIFSAINNNLPHAYFKNLLFRLVANMDRSELSDLGTLIKDNLKRDLITSLPFEISLKIFNYLQFEDIINSLGVSQNWNKIIRKSTSLWKKLLISENFVSPKGFNSLNLKLSQKYPKLSQQDRLRLSFLENIFILKNWYNPKFVPQRTTLRGHMTSVITCLQFEDNYVITGADDKMIRVYDSINKKFLLQLSGHDGGVWALKYAHGGILVSGSTDRTVRVWDIKKGCCTHVFKGHNSTVRCLDIVEYKNIKYIVTGSRDNTLHVWKLPKESSVPDHGEEHDYPLVFHTPEENPYFVGVLRGHMASVRTVSGHGNIVVSGSFDNTLIVWDVAQMKCLYILSGHTDRIYSTIYDHERKRCISASMDTTIRIWDLENIWNNGECSYATNSASPCAKILGAMYTLQGHTALVGLLRLSDKFLVSAAADGSIRGWDANDYSRKFSYHHTNLSAITTFYVSDNILVSGSENQFNIYNLRSGKLVHANILKDADQIWSVNFKGKTLVAAVEKDGQSFLEILDFSKASKINYVSNPVNSSSSSLESISTSLGLTRTTIIP
[1]
  gal Sic1T33V: dead
  gal Sic1T45A: dead
  gal Sic1 wt: alive
[1]; listed as Tyr548
  gal Sic1T33V: dosage sensitivity
[1]; Sic1 wt or stabilized Sic1(T33V) or Sic1(T45A) over-expressed under a galactose promoter
  viability / sensitivity to increased SIC1 dosage: lethal
cdc4Δ strain
  shuffle: alive
cdc4Δ strain; listed as Tyr 548
  shuffle: fractional
cdc4Δ strain; listed as Tyr548
  shuffle: did not cause loss of viability
phospho-Sic1
  P-Sic1 pull down: no bind
phospho-Sic1; listed as Tyr 548
  P-Sic1 pull down: compromised

B2: R572A: mutant cdc4 polypeptide (protein)
chain: MGSFPLAEFPLRDIPVPYSYRVSGGIASSGSVTALVTAAGTHRNSSTAKTVETEDGEEDIDEYQRKRAAGSGESTPERSDFKRVKHDNHKTLHPVNLQNTGAASVDNDGLHNLTDISNDAEKLLMSVDDGSAAPSTLSVNMGVASHNVAAPTTVNAATITGSDVSNNVNSATINNPMEEGALPLSPTASSPGTTTPLAKTTKTINNNNNIADLIESKDSIISPEYLSDEIFSAINNNLPHAYFKNLLFRLVANMDRSELSDLGTLIKDNLKRDLITSLPFEISLKIFNYLQFEDIINSLGVSQNWNKIIRKSTSLWKKLLISENFVSPKGFNSLNLKLSQKYPKLSQQDRLRLSFLENIFILKNWYNPKFVPQRTTLRGHMTSVITCLQFEDNYVITGADDKMIRVYDSINKKFLLQLSGHDGGVWALKYAHGGILVSGSTDRTVRVWDIKKGCCTHVFKGHNSTVRCLDIVEYKNIKYIVTGSRDNTLHVWKLPKESSVPDHGEEHDYPLVFHTPEENPYFVGVLRGHMASVRTVSGHGNIVVSGSYDNTLIVWDVAQMKCLYILSGHTDAIYSTIYDHERKRCISASMDTTIRIWDLENIWNNGECSYATNSASPCAKILGAMYTLQGHTALVGLLRLSDKFLVSAAADGSIRGWDANDYSRKFSYHHTNLSAITTFYVSDNILVSGSENQFNIYNLRSGKLVHANILKDADQIWSVNFKGKTLVAAVEKDGQSFLEILDFSKASKINYVSNPVNSSSSSLESISTSLGLTRTTIIP
[1]
  gal Sic1T33V: dead
  gal Sic1T45A: dead
  gal Sic1 wt: alive
[1]; listed as Arg 572
  gal Sic1T33V: same effect
cdc4Δ strain
  shuffle: alive
cdc4Δ strain; listed as Arg572
  shuffle: same behavior
phospho-Sic1
  P-Sic1 pull down: no bind
phospho-Sic1; listed as Arg572
  P-Sic1 pull down: inablity to bind

B3: T441I/T465I: double mutant cdc4 polypeptide (protein)
chain: MGSFPLAEFPLRDIPVPYSYRVSGGIASSGSVTALVTAAGTHRNSSTAKTVETEDGEEDIDEYQRKRAAGSGESTPERSDFKRVKHDNHKTLHPVNLQNTGAASVDNDGLHNLTDISNDAEKLLMSVDDGSAAPSTLSVNMGVASHNVAAPTTVNAATITGSDVSNNVNSATINNPMEEGALPLSPTASSPGTTTPLAKTTKTINNNNNIADLIESKDSIISPEYLSDEIFSAINNNLPHAYFKNLLFRLVANMDRSELSDLGTLIKDNLKRDLITSLPFEISLKIFNYLQFEDIINSLGVSQNWNKIIRKSTSLWKKLLISENFVSPKGFNSLNLKLSQKYPKLSQQDRLRLSFLENIFILKNWYNPKFVPQRTTLRGHMTSVITCLQFEDNYVITGADDKMIRVYDSINKKFLLQLSGHDGGVWALKYAHGGILVSGSIDRTVRVWDIKKGCCTHVFKGHNSIVRCLDIVEYKNIKYIVTGSRDNTLHVWKLPKESSVPDHGEEHDYPLVFHTPEENPYFVGVLRGHMASVRTVSGHGNIVVSGSYDNTLIVWDVAQMKCLYILSGHTDRIYSTIYDHERKRCISASMDTTIRIWDLENIWNNGECSYATNSASPCAKILGAMYTLQGHTALVGLLRLSDKFLVSAAADGSIRGWDANDYSRKFSYHHTNLSAITTFYVSDNILVSGSENQFNIYNLRSGKLVHANILKDADQIWSVNFKGKTLVAAVEKDGQSFLEILDFSKASKINYVSNPVNSSSSSLESISTSLGLTRTTIIP
cdc4Δ strain
  shuffle: viable
phospho-Sic1
  P-Sic1 pull down: fully competent

Source: patent US20040171074A1, “Structures of substrate binding pockets of SCF complexes” (MOUNT SINAI HOSPITAL, priority 2002, published 2004)
